Laboratory results: US20160271157A1, “BETA-CATENIN” (UCL BUSINESS PLC, priority 2013, published 2016)

B1: Wnt9B: Recombinant Wnt peptide purchased from R&D systems (protein, UniProt O14905 23-357, looked up)
Protein Wnt-9b: SYFGLTGREVLTPFPGLGTAAAPAQGGAHLKQCDLLKLSRRQKQLCRREPGLAETLRDAAHLGLLECQFQFRHERWNCSLEGRMGLLKRGFKETAFLYAVSSAALTHTLARACSAGRMERCTCDDSPGLESRQAWQWGVCGDNLKYSTKFLSNFLGSKRGNKDLRARADAHNTHVGIKAVKSGLRTTCKCHGVSGSCAVRTCWKQLSPFRETGQVLKLRYDSAVKVSSATNEALGRLELWAPARQGSLTKGLAPRSGDLVYMEDSPSFCRPSKYSPGTAGRVCSREASCSSLCCGRGYDTQSRLVAFSCHCQVQWCCYVECQQCVQEELVYTCKH
B2: Wnt5A: Recombinant Wnt peptide purchased from R&D systems (protein, UniProt P41221 62-380, looked up)
Protein Wnt-5a: IIGAQPLCSQLAGLSQGQKKLCHLYQDHMQYIGEGAKTGIKECQYQFRHRRWNCSTVDNTSVFGRVMQIGSRETAFTYAVSAAGVVNAMSRACREGELSTCGCSRAARPKDLPRDWLWGGCGDNIDYGYRFAKEFVDARERERIHAKGSYESARILMNLHNNEAGRRTVYNLADVACKCHGVSGSCSLKTCWLQLADFRKVGDALKEKYDSAAAMRLNSRGKLVQVNSRFNSPTTQDLVYIDPSPDYCVRNESTGSLGTQGRLCNKTSEGMDGCELMCCGRGYDQFKTVQTERCHCKFHWCCYVKCKKCTEIVDQFVCK

What was measured:
[1] = test system: PC3 prostate cancer cell line; experiment: Live [Ca2+]i imaging (Fluo4/FuraRed ratio) after addition of Wnt ligand; assay type: cell-based; conditions: PC3 cells; for intracellular calcium mobilization ([Ca2+]i release) in response to Wnt ligand: 100 ng/ml Wnt ligand peptide, ratio of Fluo4/Fura Red; for dependence of time constants (dwell time) on Wnt ligand concentration / co-operativity: three concentrations of each Wnt ligand, first-order fit; for rise and fall time of [Ca2+]i release: Wnt peptide 100 ng/ml
Procedure: (§1) The imaging protocol was developed in the inventor's laboratory and has been described in detail, elsewhere (Wang at al., (2010) PLoS ONE 5, e10456). Briefly, 100000-200000 PC3, MCF7, 253J or Cos 7 cells were plated on 35 mm FluoroDish (WPI) and grown for 48 h; calcium indicators Fluo-4 (Invitrogen) and FuraRed (Invitrogen) at 1 ng/ml were added to FluoroDish containing only 1 ml of culture medium and incubated for 15-20 min at 37° C. The culture medium was removed and washed (×2) and replaced with 1 ml PBS. Live cell calcium Imaging was performed on an Olympus FluoView FV 1000 confocal microscope (Olympus KeyMed) equipped with a 20× dry objective (numerical aperture=0.75). Calcium indicators were excited with an argon laser line (488 nm) and emissions recorded in the green channel (500-560 nm) for Fluo-4 and red channel (600-700 nm) for FuraRed after addition of vehicle control (PBS) or Wnt X (30-600 ng/ml). Images were acquired every 1.1 or 2.2 seconds for up to 600-800s; image and data acquisition was performed using FluoView 1000 software (Olympus, UK). Fluorescent intensity was measured and data exported as a tab delimited file for further analysis using a spreadsheet. All imaging experiments were performed in duplicate; intracellular calcium at 100 ng/ml was measured in at least 3-12 different passages (passage numbers 25 to 37) of cell line for each Wnt ligand. Wnt 11 was tested in at least 5 different passages at 3 different concentrations. To test if the Wnt activated calcium release was from [Ca^2+]i stores, in some cases PC3 cells, loaded with calcium dyes, were incubated with 1-5 μM of thapsigargin (Sigma, UK), resuspended in dimethyl sulfoxide (DMSO), for 20 min at 37° C., prior to addition of Wnt ligand and live calcium imaging (as described above).
The experiments were performed using 35 mm, glass bottom, FluoroDish containing 1 ml PBS, at 37° C., to which ligands were added at desired concentration. In a static, non-superfusing assay system there is a lag time before the start of a response, in this case an increase in the intensity of the Fluo4 signal due to the release of free calcium. To measure the diffusion constant under these conditions we used Pontamine Sky Blue (Sigma Aldridge), which fluoresces in the red spectrum with 488 nm excitation, using standard practice for adding ligands; the diffusion constant was measured to be 23.3±2.1 μm·s^−1 (means±S.E.M, n=8). The calcium wave, in response to Wnt ligands, travelled across the FluoroDish.
After image acquisition, regions of interest (ROI) were drawn over individual PC3 cells (up to 25) in a single frame and calcium intensity measurements were made using FluoView 1000 software (Olympus, UK). The measurements were exported as a tab delimited file into a spreadsheet for further analysis and Fluo4/Fura Red ratios were calculated. The waveform, a product of the ratio of Fluo4 and FuraRed over the period of measurement was used to measure the kinetics of the activation of [Ca^2+]i release in PC3 cells, in response to different Wnt ligands. The time constants (rise, dwell and fall times) were calculated by first fitting the Fluo4/FuraRed ratio to a single Gaussian function (Origin Lab Corp., MA); a lower (10%) and upper (90%) amplitude thresholding method was then used to calculate the time constants (s). Statistical significance was calculated using Mann Whitney U test.

[2] = test system: Cos7 simian kidney cell line; experiment: Live [Ca2+]i imaging after addition of Wnt ligand, Cos7; assay type: cell-based; conditions: Cos7 cells
Procedure: as §1, with “[…])” for “KeyMed)”, “Images were acquired every 1.1 or 2.2 seconds for up to 600-800s; image and data acquisition was performed using FluoView 1000 software (Olympus, UK).” left out, “[…] The measurements” for “Wnt 11 was tested in at least 5 different passages at 3 different concentrations. To test if the Wnt activated calcium release was from [Ca^2+]i stores, in some cases PC3 cells, loaded with calcium dyes,”, “exported as a tab delimited file into a spreadsheet” for “incubated with 1-5 μM of thapsigargin (Sigma, UK), resuspended in dimethyl sulfoxide (DMSO),”, “further analysis” for “20 min at 37° C., prior to addition of Wnt ligand”, “Fluo4/Fura Red ratios were calculated. […]” for “live calcium imaging (as described above).”

Row | Molecule | time for thapsigargin-evoked calcium transient to decline to baseline ([1]; thapsigargin 5 μM final concentration) | intracellular calcium mobilization ([Ca2+]i release) in response to Wnt ligand [1] | dependence of time constants (dwell time) on Wnt ligand concentration / co-operativity [1] | rise and fall time of [Ca2+]i release [1] | K1/2 (half-maximal concentration), Michaelis-Menten kinetics of dwell time of [Ca2+]i release ([1]; estimated from fit of dwell time vs Wnt concentration) | [Ca2+]i activation in response to Wnt ligand [2]
1 | C/C=C(/C)C(=O)O[C@H]1C(C)=C2[C@H]([C@@H]1OC(=O)CCCCCCC)[C@@](C)(OC(C)=O)C[C@H](OC(=O)CCC)[C@@]1(O)[C@H]2OC(=O)[C@@]1(C)O [thapsigargin, reference compound] | ≤ 120 s | – | – | – | – | –
2 | Wnt10B: Recombinant Wnt peptide purchased from R&D systems | – | induce intracellular calcium mobilization | negative co-operativity | – | – | –
3 | B1 | – | induce intracellular calcium mobilization | negative co-operativity | slowest | – | –
4 | B2 | – | induce intracellular calcium mobilization | classical Michaelis-Menten kinetics | shortest | 67 ng/mL | activated [Ca^2+]i
